Experimental data: publication PMC3098264, “Crystal Structure of the PAC1R Extracellular Domain Unifies a Consensus Fold for Hormone Recognition by Class B G-Protein Coupled Receptors” (PLoS ONE, 2011)
“Also recorded” adds a separate entry of the source.

The substances below were run against T1, human PAC1R ECD (MBP-PAC1R (25–140)-His6) (Homo sapiens, UniProt P41586) (assay: AlphaScreen competitive peptide binding assay (unlabelled PACAP peptides vs biotin-PACAP (6–38)-NH2)). Details: Ala scanning mutants of PACAP (15–31), 120 µM untagged competing peptides, 40 nM protein and biotinylated PACAP, 20°C, five hours, pH 7.4.
T1 construct: made in house; host or cells: E. coli Origami B (DE3), co-expressed with DsbC from pET-Duet1
T1 sequence (P41586 25-140 isoform P41586-3): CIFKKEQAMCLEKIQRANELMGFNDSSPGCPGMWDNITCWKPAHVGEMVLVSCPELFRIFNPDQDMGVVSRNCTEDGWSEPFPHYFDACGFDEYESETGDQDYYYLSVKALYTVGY
Experimental: The binding of PAC1R with a 35 residue PACAP peptide was analysed using the histidine detection kit of AlphaScreen® luminescent proximity assay from PerkinElmer. All binding assays were performed without cleaving the MBP tag from the receptor ECD. Using its C-terminal His tag, PAC1R was bound to Ni-chelate coated acceptor beads (5 µg/ml) at the final concentrations of 40 nM. Similarly, biotinylated PACAP was bound to streptavidin coated donor beads (5 µg/ml) at the final concentrations of 40 nM. The protein and peptide were pre-incubated with the respective beads for one hour (to ensure maximal binding to the beads), then they were allowed to interact with each other at 20°C for five hours. To perform competitive binding assays, 120 µM of the untagged competing peptides were added at time 0 of the five hour protein-peptide interaction period. All interactions were performed in the background of 50 mM MOPS pH 7.4, 150 mM NaCl and 7 mg/ml BSA. The binding signals were measured in a 384-well microplate using an Envision 2104 plate reader (PerkinElmer). The obtained data for competitive peptide binding were fit as a non-linear regression curve using the variable slope dose-response inhibition analysis using the Prism5.0 (GraphPad). To ensure the specificity of the competing peptides, a control peptide of biotin-Gly6-His6 was used in the same assay setup.

Row | Substance | effect of Ala mutation in PACAP (15–31) on binding to PAC1R ECD (Ala scanning)
1 | K20A′: Ala scanning mutant of PACAP (15–31) (KQMAVAKYLAAVLGKRY; Pituitary adenylate cyclase-activating polypeptide 38; UniProt P18509 146-162, looked up, variant K20A) | affect the binding to PAC1R the most; also recorded: almost completely abolishes the ability of the peptide to bind the receptor ECD
2 | L27A′: Ala scanning mutant of PACAP (15–31) (KQMAVKKYLAAVAGKRY; Pituitary adenylate cyclase-activating polypeptide 38; UniProt P18509 146-162, looked up, variant L27A) | seem to play important roles in the binding; also recorded: affect the binding to PAC1R the most
3 | V19A′: Ala scanning mutant of PACAP (15–31) (KQMAAKKYLAAVLGKRY; Pituitary adenylate cyclase-activating polypeptide 38; UniProt P18509 146-162, looked up, variant V19A) | seem to play important roles in the binding; also recorded: affect the binding to PAC1R the most
